Measurements reported in PMC10628242, “Enzymatic β-elimination in natural product O- and C-glycoside deglycosylation” (Nature Communications, 2023).

Columns and labels:
[1] = substrate: O=C(CCc1ccc(O)cc1)c1c(O)cc(O)cc1O[C@@H]1O[C@H](COP(=O)(O)O)[C@@H](O)[C@H](O)[C@H]1O; assay: initial rates, HPLC of phloretin release; assay type: biochemical, Bacillus subtilis; conditions: HEPES pH 7.5, 0.5 mM MnSO4, 0.3 mM NAD+, 37 °C
[2] = substrate: O=C(CCc1ccc(O)cc1)c1c(O)cc(O)cc1O[C@@H]1O[C@H](CO)[C@@H](O)C(=O)[C@H]1O; assay: initial rates, HPLC of phloretin release; assay type: biochemical, human intestinal bacterium PUE; conditions: potassium phosphate pH 6.0, 5% DMSO, 37 °C, preincubated with 5 mM MnCl2
[3] = substrate: O=C1[C@@H](O)[C@H](c2c(O)ccc3c(=O)c(-c4ccc(O)cc4)coc23)O[C@H](CO)[C@H]1O; assay: initial rates, HPLC of daidzein release; assay type: biochemical, human intestinal bacterium PUE; conditions: potassium phosphate pH 6.0, 5% DMSO, 37 °C, preincubated with 5 mM MnCl2, substrate is a 2/3-keto mixture
[4] = substrate: O=C(CCc1ccc(O)cc1)c1c(O)cc(O)cc1O[C@@H]1O[C@H](CO)[C@@H](O)C(=O)[C@H]1O; assay: initial rates, HPLC of phloretin release; assay type: biochemical, Agrobacterium radiobacter; conditions: potassium phosphate pH 6.0, 5% DMSO, 37 °C, printed kcat is 10-fold above the one implied by printed kcat/Km (1.2 × 10^6 M^−1s^−1) and by 235 U/mg
[5] = substrate: O=C(CCc1ccc(O)cc1)c1c(O)cc(O)cc1O[C@@H]1O[C@H](COP(=O)(O)O)[C@@H](O)[C@H](O)[C@H]1O; assay: initial rates, HPLC of phloretin release; assay type: biochemical, Thermotoga maritima; conditions: HEPES pH 7.5, 0.5 mM MnSO4, 0.3 mM NAD+, 37 °C

B1: GlvA (Bacillus subtilis subsp. subtilis str. 168) (protein)
chain: MKKKSFSIVIAGGGSTFTPGIVLMLLDHLEEFPIRKLKLYDNDKERQDRIAGACDVFIREKAPDIEFAATTDPEEAFTDVDFVMAHIRVGKYAMRALDEQIPLKYGVVGQETCGPGGIAYGMRSIGGVLEILDYMEKYSPDAWMLNYSNPAAIVAEATRRLRPNSKILNICDMPVGIEDRMAQILGLSSRKEMKVRYYGLNHFGWWTSIQDQEGNDLMPKLKEHVSQYGYIPKTEAEAVEASWNDTFAKARDVQAADPDTLPNTYLQYYLFPDDMVKKSNPNHTRANEVMEGREAFIFSQCDMITREQSSENSEIKIDDHASYIVDLARAIAYNTGERMLLIVENNGAIANFDPTAMVEVPCIVGSNGPEPITVGTIPQFQKGLMEQQVSVEKLTVEAWAEKSFQKLWQALILSKTVPNARVARLILEDLVEANKDFWPELDQSPTRIS
notes: N-terminal Strep-tag II; E. coli; 51,960 Da; GH4, Mn2+ and NAD+ dependent
Km [1]: 100 µM | kcat [1]: ~0.02 s⁻¹

B2: PuCGE (human intestinal bacterium PUE) (protein)
chain 1: MSNVKLGVTLYSFSTEYCQGKMTLEDCIRTAKELGAAGFEIVATQMIPSYPYVSDKFLGELKSICQYYDMEPVCYGANCDRGLRGDRNLTGDEMVAMAVRDIKNAHKMGCKVVREQWLMGPENFAKLAPFAEHYGVKVGIEVHNPETPITQSTKDYIAAIDKTGSKYLGLIPDFGCFANKPNKMNWDNALADGADKKLLEMARDMKYDNVPYDEAVKRLTAAGAKKVELTTMRDMYTFLTFKKDVSAELQGLKDMIPYCIHMHGKYHYMYENLQEAAIPYDDIMKIVSESDYDGYIVSEYEEYNSGHSIEMLRRHLKMMHNFVD
chain 2: MGLALRLNFVDVVCDDSLKNFWANGKKIGYQFDVRLSYYRGHFLSTIDEIGVKVDGVDVPAENISLCLDGKEYGVAELHDLVNVFWPIIEPATIKVFQPGGLSEEEHDVDFTLYFRSPYMALSETEYQSIDSCGSKRLNVQN
notes: heterodimer alpha (39,205 Da) + beta (18,313 Da), co-expressed from pET-Duet-1 in E. coli; N-terminal Strep-tag II; Mn2+ enzyme
Km [2]: 0.6 (±0.1) mM | kcat [2]: 1.20 (±0.05) s^−1 | Km [3]: 0.8 (±0.1) mM | kcat [3]: 18 (±0.4) s^−1

B3: AtOGE (Agrobacterium radiobacter) (protein)
chain: KLDDSKTLPIAAQMYTLRNAGTLEEQLAILNRAGVSAVETVDMQKVSASELNALLEKHKIKVISSHVPIDKLRGNLDEVITEQKAVGNPVVTVPFLKPEDRPKDAAGWTAFGKELGGYADKLSAAGLSMAYHNHDFEMVKFDGKTALELLLDAAGPKLQSELDVAWVARSGNDPAEFLGTLNGRVFAIHAKDDAPAGTAENERGFATIGTGVLDWKTILPAAKHAGAQWFILEHDLPLDAEAVVTKGNAFLSERLPTIQ
notes: N-terminal Strep-tag II kept in assays (cut by TEV only for crystallization); E. coli Lemo21(DE3); 29,895 Da subunit; Mn2+ enzyme; dimer in crystal
Km [4]: 0.10 (±0.01) mM

B4: BglT (Thermotoga maritima MSB8) (protein)
chain: MRIAVIGGGSSYTPELVKGLLDISEDVRIDEVIFYDIDEEKQKIVVDFVKRLVKDRFKVLISDTFEGAVVDAKYVIFQFRPGGLKGRENDEGIPLKYGLIGQETTGVGGFSAALRAFPIVEEYVDTVRKTSNATIVNFTNPSGHITEFVRNYLEYEKFIGLCNVPINFIREIAEMFSARLEDVFLKYYGLNHLSFIEKVFVKGEDVTEKVFENLKLKLSNIPDEDFPTWFYDSVRLIVNPYLRYYLMEKKMFKKISTHELRAREVMKIEKELFEKYRTAVEIPEELTKRGGSMYSTAAAHLIRDLETDEGKIHIVNTRNNGSIENLPDDYVLEIPCYVRSGRVHTLSQGKGDHFALSFIHAVKMYERLTIEAYLKRSKKLALKALLSHPLGPDVEDAKDLLEEILEANREYVKLG
notes: N-terminal Strep-tag II; E. coli; 48,997 Da; GH4, Mn2+ and NAD+ dependent
Km [5]: 300 µM | kcat [5]: ~0.01 s⁻¹
